Measurements: paper PMC9408559, “Genome-Wide Analysis of the RAV Gene Family in Wheat and Functional Identification of TaRAV1 in Salt Stress”

B1: probe with CAACA and CACCTG elements (dsDNA)
DNA 1: CGGCAACAATAAACACCTGACTCGACGGCAACAATAAACACCTGAC
DNA 2: GTCAGGTGTTTATTGTTGCCGTCGAGTCAGGTGTTTATTGTTGCCG
B2: probe with mutated CAACA and CACCTG elements (dsDNA)
DNA 1: CGGCATGTATAAACAATAGACTCGACGGCATGTATAAACAATAGAC
DNA 2: GTCTATTGTTTATACATGCCGTCGAGTCTATTGTTTATACATGCCG

Target: TaRAV1 (GST fusion) (Triticum aestivum, UniProt A0A3B6A018 1-392)
Assay: EMSA; LightShift Chemiluminescent EMSA kit (Pierce), manufacturer's protocol; buffer, salt, pH and temperature not given
Settings: protein: recombinant; tags: GST; label: biotin

Sequence of TaRAV1 (GST fusion) (A0A3B6A018 entry or part of it): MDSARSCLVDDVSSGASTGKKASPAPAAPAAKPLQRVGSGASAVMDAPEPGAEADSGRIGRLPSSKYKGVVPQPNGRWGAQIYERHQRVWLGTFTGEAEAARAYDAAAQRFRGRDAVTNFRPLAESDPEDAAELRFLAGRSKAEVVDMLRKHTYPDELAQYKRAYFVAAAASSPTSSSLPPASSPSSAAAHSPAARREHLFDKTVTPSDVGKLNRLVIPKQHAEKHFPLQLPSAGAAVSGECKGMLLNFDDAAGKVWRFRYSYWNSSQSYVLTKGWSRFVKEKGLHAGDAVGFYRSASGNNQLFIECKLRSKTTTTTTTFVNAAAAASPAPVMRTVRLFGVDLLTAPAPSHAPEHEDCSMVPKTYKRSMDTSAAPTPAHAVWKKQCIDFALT

Row | Binder | binding result
1 | B1 | binds
2 | B2 | no binding
